Drawing on article PMC7490372, “Structural bases of IMiD selectivity that emerges by 5-hydroxythalidomide” (Nature Communications, 2020), this text covers response (Relative AS signal) for eleven variants.

B1: FLAG-GST-SALL4 (wild type) [human] / biotinylated CRBN (wild type) [modified: biotin (added by BirA during cell-free synthesis); biotin (added by BirA during cell-free synthesis)] [human] (parent)
chain 1: MSRRKQAKPQHINSEEDQGEQQPQQQTPEFADAAPAAPAAGELGAPVNHPGNDEVASEDEATVKRLRREETHVCEKCCAEFFSISEFLEHKKNCTKNPPVLIMNDSEGPVPSEDFSGAVLSHQPTSPGSKDCHRENGGSSEDMKEKPDAESVVYLKTETALPPTPQDISYLAKGKVANTNVTLQALRGTKVAVNQRSADALPAPVPGANSIPWVLEQILCLQQQQLQQIQLTEQIRIQVNMWASHALHSSGAGADTLKTLGSHMSQQVSAAVALLSQKAGSQGLSLDALKQAKLPHANIPSATSSLSPGLAPFTLKPDGTRVLPNVMSRLPSALLPQAPGSVLFQSPFSTVALDTSKKGKGKPPNISAVDVKPKDEAALYKHKCKYCSKVFGTDSSLQIHLRSHTGERPFVCSVCGHRFTTKGNLKVHFHRHPQVKANPQLFAEFQDKVAAGNGIPYALSVPDPIDEPSLSLDSKPVLVTTSVGLPQNLSSGTNPKDLTGGSLPGDLQPGPSPESEGGPTLPGVGPNYNSPRAGGFQGSGTPEPGSETLKLQQLVENIDKATTDPNECLICHRVLSCQSSLKMHYRTHTGERPFQCKICGRAFSTKGNLKTHLGVHRTNTSIKTQHSCPICQKKFTNAVMLQQHIRMHMGGQIPNTPLPENPCDFTGSEPMTVGENGSTGAICHDDVIESIDVEEVSSQEAPSSSSKVPTPLPSIHSASPTLGFAMMASLDAPGKVGPAPFNLQRQGSRENGSVESDGLTNDSSSLMGDQEYQSRSPDILETTSFQALSPANSQAESIKSKSPDAGSKAESSENSRTEMEGRSSLPSTFIRAPPTYVKVEVPGTFVGPSTLSPGMTPLLAAQPRRQAKQHGCTRCGKNFSSASALQIHERTHTGEKPFVCNICGRAFTTKGNLKVHYMTHGANNNSARRGRKLAIENTMALLGTDGKRVSEIFPKEILAPSVNVDPVVWNQYTSMLNGGLAVKTNEISVIQSGGVPTLPVSLGATSVVNNATVSKMDGSQSGISADVEKPSATDGVPKHQFPHFLEENKIAVS
chain 2: MAGEGDQQDAAHNMGNHLPLLPAESEEEDEMEVEDQDSKEAKKPNIINFDTSLPTSHTYLGADMEEFHGRTLHDDDSCQVIPVLPQVMMILIPGQTLPLQLFHPQEVSMVRNLIQKDRTFAVLAYSNVQEREAQFGTTAEIYAYREEQDFGIEIVKVKAIGRQRFKVLELRTQSDGIQQAKVQILPECVLPSTMSAVQLESLNKCQIFPSKPVSREDQCSYKWWQKYQKRKFHCANLTSWPRWLYSLYDAETLMDRIKKQLREWDENLKDDSLPSNPIDFSYRVAACLPIDDVLRIQLLKIGSAIQRLRCELDIMNKCTSLCCKQCQETEITTKNEIFSLSLCGPMAAYVNPHGYVHETLTVYKACNLNLIGRPSTEHSWFPGYAWTVAQCKICASHIGWKFTATKKDMSPQKFWGLTRSALLPTIPDTEDEISPDKVILCL
B2: FLAG-GST-IKZF1 (wild type) [not stated] / biotinylated CRBN (wild type) [modified: biotin (added by BirA during cell-free synthesis); biotin (added by BirA during cell-free synthesis)] [human] (parent)
chain 1: MDADEGQDMSQVSGKESPPVSDTPDEGDEPMPIPEDLSTTSGGQQSSKSDRVVASNVKVETQSDEENGRACEMNGEECAEDLRMLDASGEKMNGSHRDQGSSALSGVGGIRLPNGKLKCDICGIICIGPNVLMVHKRSHTGERPFQCNQCGASFTQKGNLLRHIKLHSGEKPFKCHLCNYACRRRDALTGHLRTHSVGKPHKCGYCGRSYKQRSSLEEHKERCHNYLESMGLPGTLYPVIKEETNHSEMAEDLCKIGSERSLVLDRLASNVAKRKSSMPQKFLGDKGLSDTPYDSSASYEKENEMMKSHVMDQAINNAINYLGAESLRPLVQTPPGGSEVVPVISPMYQLHKPLAEGTPRSNHSAQDSAVENLLLLSKAKLVPSEREASPSNSCQDSTDTESNNEEQRSGLIYLTNHIAPHARNGLSLKEEHRAYDLLRAASENSQDALRVVSTSGEQMKVYKCEHCRVLFLDHVMYTIHMGCHGFRDPFECNMCGYHSQDRYEFSSHITRGEHRFHMS
chain 2: B1 chain 2

The variants in one assay derive from B1. Put plainly: AlphaScreen (AS-based interaction assay). Conditions: with biotinylated CRBN (wild type) [modified: biotin (added by BirA during cell-free synthesis), (S)-thalidomide, last (highest) point of the titration, Log[(S)-Thal (µM)] = 2, signal relative to DMSO = 1, read off a plot. A general note: Alpha assays give light when donor and acceptor beads are brought close together.
As for chain 1 V411K, the response (Relative AS signal) was found to be 7.
Take chain 1 V411Q: the response (Relative AS signal) was 100.
For chain 1 V411R, the response (Relative AS signal) turned out to be 14.
On the same count and under the same terms, in the case of chain 1 V411I it was 75; in that of chain 1 V411H, 20.

The same assay, now with this note: with biotinylated CRBN (wild type) [modified: biotin (added by BirA during cell-free synthesis), pomalidomide, last (highest) point of the titration, Log[Pom (µM)] = 2, signal relative to DMSO = 1, read off a plot.
On to chain 1 V411K, for which the response (Relative AS signal) amounted to 8.
Regarding chain 1 V411Q, the response (Relative AS signal) was 100.
Still for that read-out and setting: in the case of chain 1 V411R it was 37; in that of chain 1 V411I, 78.
As to chain 1 V411H, the response (Relative AS signal) came out at 22.
Still for that read-out and setting: in the case of chain 1 V411A it was 52.

Still in this assay, the particulars now being: with biotinylated CRBN (wild type) [modified: biotin (added by BirA during cell-free synthesis), (S)-5HT, last (highest) point of the titration, Log[(S)-5HT (µM)] about 2.3, signal relative to DMSO = 1, read off a plot.
chain 1 V411Q: the response (Relative AS signal) was 4.5.
On the same count and under the same terms, the value for chain 1 V411Q R418S was 4.5.

The same assay, now with this note: with biotinylated CRBN (wild type) [modified: biotin (added by BirA during cell-free synthesis), (S)-thalidomide, last (highest) point of the titration, Log[(S)-Thal (µM)] about 2.3, signal relative to DMSO = 1, read off a plot.
In the case of chain 1 V411Q, the response (Relative AS signal) was determined as 66.
Same read-out and setting: in the case of chain 1 V411Q R418S it was 62.

Still in this assay, the particulars now being: with biotinylated CRBN (wild type) [modified: biotin (added by BirA during cell-free synthesis), 5HP, last (highest) point of the titration, Log[5HP (µM)] = 2, signal relative to DMSO = 1, read off a plot.
With chain 1 V411I, the response (Relative AS signal) was 51.
The same measure, in the same setting: in the case of chain 1 V411A it was 26.
On the same count and under the same terms, in the case of chain 1 V411T it was 43; in that of chain 1 V411L, 14.

The same assay, now with this note: with biotinylated CRBN (wild type) [modified: biotin (added by BirA during cell-free synthesis), (S)-5HT, last (highest) point of the titration, Log[(S)-5HT (µM)] = 2, signal relative to DMSO = 1, read off a plot.
Take chain 1 V411I: the response (Relative AS signal) amounted to 63.
For chain 1 V411A, the response (Relative AS signal) was 29.
Still for that read-out and setting: in the case of chain 1 V411T it was 47.
Consider chain 1 V411L, for which the response (Relative AS signal) stood at 14.

Another assay covers variants of B2. Put plainly: AlphaScreen (AS-based interaction assay). The following applies: with biotinylated CRBN (wild type) [modified: biotin (added by BirA during cell-free synthesis), (S)-5HT, last (highest) point of the titration, Log[(S)-5HT (µM)] about 2.3, signal relative to DMSO = 1, read off a plot.
On to chain 1 Q146V, for which the response (Relative AS signal) worked out at 25.
Still for that read-out and setting: the value for chain 1 Q146V S153R was 26.

Staying with this assay, now noted: with biotinylated CRBN (wild type) [modified: biotin (added by BirA during cell-free synthesis), (S)-thalidomide, last (highest) point of the titration, Log[(S)-Thal (µM)] about 2.3, signal relative to DMSO = 1, read off a plot.
Take chain 1 Q146V: the response (Relative AS signal) was 28.
The same measure, in the same setting: the value for chain 1 Q146V S153R was 14.
